Laboratory results taken from PMC10118082 (PLOS ONE, 2023).
Several values for one entry are separate records, joined by “and”; a condition that tells them apart may be missing. Identical values can stand only once.

Tests used:
[1] = target: T1, human complement component 5 (C5) (Homo sapiens, UniProt P01031); assay: cell-based or functional assay
[2] = target: T1, human complement component 5 (C5); assay: SEC-MALS; antibody (700 nM) plus C5 (400 nM) incubated about 30 min at room temperature in PBS; Bio SEC-5 1000 A column run in PBS; no eculizumab; details: both partners purified

B1: mAb TPP-2799 (antibody, V domains shown)
VH: QVQLVESGGGLVQPGRSLRLSCAASGFTVHSSYYMAWVRQAPGKGLEWVGAIFTGSGAEYKAEWAKGRVTISKDTSKNQVVLTMTNMDPVDTATYYCASDAGYDYPTHAMHYWGQGTLVTVSS
VL: DIQMTQSPSSLSASVGDRVTITCRASQGISSSLAWYQQKPGKAPKLLIYGASETESGVPSRFSGSGSGTDFTLTISSLQPEDFATYYCQNTKVGSSYGNTFGGGTKVEIK
notes: heavy chain of Chugai mAb RO7112689 (crovalimab) as described in CAS Registry Number 1917321-26-6; light chain of Chugai mAb RO7112689 (crovalimab) as described in CAS Registry Number 1917321-26-6; MALS mass alone 154 kDa; also called RO7112689; source: Expi293, transiently expressed, purified (MabSelect SuRe); copies: 2 + 2
- IC50 of inhibition of classical-pathway hemolysis of antibody-sensitized chicken red blood cells in 20% (v/v) human serum [1]: 30 nM
- stoichiometry N [2]: 1 C5 per TPP-2799 and 2 C5 per TPP-2799
